# Where two headings read alike, the source gives them in different places.
# Assays:
# [1] = Solubility Characteristics of COPs; type: physicochemical
# Method: All COPs were synthesized by solid phase fmoc chemistry at research scale to allow determination of IgE binding. […] Peptides were resuspended either in water at 2 mg/ml or at 10 to 20 mg per ml in DMSO (see Table 1) and frozen in aliquots.
# [2] = system: IgE of sera of house dust mite allergic patients binding to nDer p 2; assay: Competition ELISA on Der p 2 coated plates; design: species or system human; conditions: for IgE binding in competition ELISA (Der p 2): sera from patients allergic to house dust mites, COPs 10^−5 to 10^−10 M
# Method: (§1) Purified Der p 1 or Der p 2 at 1.0 μg/ml were coated overnight on 96-well Nunc Maxisorp® immunoplates (Thermo Fisher Scientific Inc., Wohlen, Switzerland). After blocking with 1% BSA, either twenty-fold, thirty-fold or forty-fold up to 200-fold dilutions of patient serum were added depending on specific IgE content. […] Sera of allergic patients were obtained from US and Europe (PlasmaLab International, Everett, Wash., USA and Biomnis, Lyon, France) respectively) selected for positive CAP for D. pteronyssinus and clear signal over background and used to test for competition with the peptides. Serial dilutions of each set of COPs, namely for Der p 1 Set A, B, C or D and for Der p 2 mixes D, E or F at concentrations ranging from 10^−5 to 10^−10 M were pre-incubated with selected serums for 15 min. on ice.
# IgE = assay: Direct ELISA of Der p 2 COPs; type: binding, human
# [3] = system: IgE of sera of house dust mite allergic patients binding to nDer p 1; assay: Competition ELISA on Der p 1 coated plates; design: species or system human; conditions: for IgE binding in competition ELISA (Der p 1): sera from patients allergic to house dust mites, COPs 10^−5 to 10^−10 M
# Method: as §1
# [4] = system: RBL-703/21 cells transfected with human Fc epsilon RI receptor, sensitized with sera from patients with house dust mite allergy; assay: RBL degranulation; type: cell-based; conditions: RBL cells pre-loaded with 18 human serums; AllerDM up to 10^−5M
# Method: Degranulation assay was performed as described in [37]. RBL-703/21 cells transfected with human Fc epsilon RI receptor were plated in 96-well tissue culture plates (10^5 cells/well) overnight. Passive sensitization of RBL-703/21 cells was carried out with sera from patients with house dust mite allergy at 1:20 overnight. Unbound antibodies were removed by washing the cell layer twice in Hanks' balanced salt solution (Gibco, Life technologies) the next day. Degranulation of RBL cells was induced for 1 h at 37° C. by adding nDer p1, nDer p 2 or individual COPs and mixes at indicated concentrations diluted in Tyrode's buffer (130 mM NaCl, 5 mM KCl, 1.4 mM CaCl2, 1 mM MgCl2, 5.6 mM glucose, 10 mM HEPES pH7.4, 0.1% BSA). β-hexosaminidase activity was analyzed by incubating 30 μl of cell supernatant with 50 μl of 1.3 mg/ml 4-Nitrophenyl N-acetyl-β-D-glucosaminide (Sigma) in citrate buffer (0.1M, pH 4.5) for 1 h at 37° C. The reaction was stopped by addition of 100 μl glycine buffer (0.2M glycine, 0.2M NaCl, pH 10.7) and optical densities (OD) were measured at 405 nm.
molecule,measurement,setting,value
DQVDVKDCANHEIKKVLVPGCHGSEPCIIHRGKPFQLEAVFEANQNTKTAKIEIKASIDGLEVDVPGIDPNA [AllerDM2.1],Conc.,[1]; pH 5,1000 µg/mL
same,IgE binding in competition ELISA (Der p 2),[2],did not bind IgE
SEPCIIHRGKPFQLEALFEANQNSKTAKIEIKASIDGLEVDVPGIDPNACHYMKCPLVKGQQYDIKYTWNVPKIA [AllerDM2.7],Conc.,[1],3500 µg/mL
same,IgE binding in competition ELISA (Der p 2),[2],residual IgE binding
SIDGLEVDVPGIDPNACHYMKCPLVKGQQYDIKYTWNVPKIAPKSENVVVTVKVMGDDGVLACAIATHAKIRD [AllerDM2.2],Conc.,[1],1700 µg/mL
same,IgE binding in direct ELISA,IgE,found to bind IgE
same,effect of denaturing salts on IgE binding (Der p 2 competition ELISA),"[2]; denaturing salts incl. guanidinium chloride or urea, 30 min pre-incubation with 1M guanidinium chloride",strongly diminished IgE binding
AIAVIIGIKDLDAFRHYDGRTIIQRDNGYQPNYHAVNIVGYSNAQGVDYWIVRNSWDTNWGDNGYGYFAANIDLMMIEEYPYVVIL (peptide) peptide: AIAVIIGIKDLDAFRHYDGRTIIQRDNGYQPNYHAVNIVGYSNAQGVDYWIVRNSWDTNWGDNGYGYFAANIDLMMIEEYPYVVIL,IgE binding in competition ELISA (Der p 1),[3],Residual IgE binding was observed
same,Conc.,[1],500 µg/mL
Der p 1: purified natural Der p 1 house dust mite major allergen from Indoor Biotechnologies Ltd (protein) TNACSINGNAPAEIDLRQMRTVTPIRMQGGCGSCWAFSGVAATESAYLAYRNQSLDLAEQELVDCASQHGCHGDTIPRGIEYIQHNGVVQESYYRYVAREQSCRRPNAQRFGISNYCQIYPPNVNKIREALAQTHSAIAVIIGIKDLDAFRHYDGRTIIQRDNGYQPNYHAVNIVGYSNAQGVDYWIVRNSWDTNWGDNGYGYFAANIDLMMIEEYPYVVIL,concentration range of competition (Der p 1 control),[3]; panel of 21 sera,10^−7 to 10^−9 M
same,"basophil degranulation of RBL cells, serum panel",[4],able to induce degranulation
"TNACSINGNAPAEIDLRQMRTVTPIRMQGGCGSCWAFSGVAATESAYLAYRNQSLDLAEQELVDCASQHG (peptide, listed as Dermatophagoides pteronyssinus, Der p 1 contiguous overlapping peptide, 70AA, T99 to G168) TNACSINGNAPAEIDLRQMRTVTPIRMQGGCGSCWAFSGVAATESAYLAYRNQSLDLAEQELVDCASQHG",IgE binding in competition ELISA (Der p 1),[3],no detectable IgE binding
same,Conc.,[1]; Solvent 7M guanidinium chloride,30000 µg/mL
"TNACSINGNAPAEIDLRQMRTVTPIRMQGGCGSCWAFSGVAATESAYLAYRNQSLDLAEQELVDCA (peptide, listed as Dermatophagoides pteronyssinus, Der p 1 contiguous overlapping peptide, 66AA) TNACSINGNAPAEIDLRQMRTVTPIRMQGGCGSCWAFSGVAATESAYLAYRNQSLDLAEQELVDCA",IgE binding in competition ELISA (Der p 1),[3],no detectable IgE binding
same,solubility remark,[1]; 1.2: when added to Citrate buffer or PBS at 2 × 10^−5M,NaOH) Difficult pH8
same,Conc.,"[1]; H2O, pH adjusted with HCl and NaOH",1000 µg/mL
Der p 2: purified natural Der p 2 house dust mite major allergen from Indoor Biotechnologies Ltd (protein) DQVDVKDCANHEIKKVLVPGCHGSEPCIIHRGKPFQLEALFEANQNSKTAKIEIKASIDGLEVDVPGIDPNACHYMKCPLVKGQQYDIKYTWNVPKIAPKSENVVVTVKVLGDNGVLACAIATHAKIRD,concentration range of competition (Der p 2 control),[2]; panel of 21 sera,10^−7 to 10^−9 M
same,"basophil degranulation of RBL cells, serum panel",[4],able to induce degranulation

# From patent US20150050301A1, “Contiguous Overlapping Peptides for Treatment of House Dust Mites Allergy” (ANERGIS S.A., priority 2013, published 2015)
